For one data set, the target named is Skp(V117P) (E. coli) (UniProt P0AEU7). Nature of the data set: solution NMR (signal intensities of monomer and trimer) + SEC-MALS; fraction of monomer against total Skp concentration, 25°C, 20 mM MES pH 6.5, 150 mM NaCl; monomer to trimer; C0.5 is the protein concentration at which half of the molecules are monomeric.
In data set [1] the target is tOmpA, the eight-stranded transmembrane domain of OmpA (residues 1 to 177). Nature of the data set: NMR quantification of Skp-bound tOmpA after complex assembly (holdase assay); excess of denatured [U-2H,15N]-tOmpA added dropwise to unlabeled Skp in 20 mM MES pH 6.5, 150 mM NaCl, aggregate spun down, tOmpA signals in 2D [15N,1H]-TROSY of the supernatant, 37°C, normalised to Skp(WT).

Data set [2] concerns the molecule itself. Nature of the data set: SEC-MALS; Skp variants alone, elution concentration ≃80 μM, 25°C, 20 mM MES pH 6.5, 150 mM NaCl; monomer to trimer.
The target of data set [3] is P0AEU7. Described as above.
Data set [4] deals with the molecule itself. Described as above. This is another data set of the same source.
Data set [5] concerns the molecule itself. Nature of the data set: solution NMR (signal intensities of monomer and trimer) + SEC-MALS; fraction of monomer against total Skp concentration, 25°C, 20 mM MES pH 6.5, 150 mM NaCl; monomer to trimer; C0.5 is the protein concentration at which half of the molecules are monomeric.
Data set [6] concerns the molecule itself. The description is as above. This is another data set of the same source.
Data set [7] deals with P0AEU7. Nature of the data set: solution NMR (signal intensities of monomer and trimer); Skp variants alone at 37°C, 20 mM MES pH 6.5, 150 mM NaCl; monomer to trimer. To be noted: other: solution NMR (signal intensities of monomer and trimer).

Changes are numbered by the printed parent chain. Names may count otherwise.

Consider “Skp(V117P) (from UniProt P0AEU7 21-161) (natural protein)”, for which the C0.5 with Skp(V117P) (E. coli) is > 1000 µM. The Skp activity (% of WT), amount of Skp-bound tOmpA in data set [1] was 1 % of WT.

B1: Skp(WT), seventeen kilodalton protein, periplasmic chaperone of Escherichia coli (natural protein, E. coli, UniProt P0AEU7 21-161, looked up)
chain: ADKIAIVNMGSLFQQVAQKTGVSNTLENEFKGRASELQRMETDLQAKMKKLQSMKAGSDRTKLEKDVMAQRQTFAQKAQAFEQDRARRSNEERGKLVTRIQTAVKSVANSQDIDLVVDANAVAYNSSDVKDITADVLKQVK
notes: Stands in a monomer-trimer equilibrium; the active form is the homotrimer; The thrombin-cleavable His6-tag of pET28b was not cleaved; Isotope-labelled for NMR in some samples; source: E. coli BL21-(λ DE3)-Lemo, purified (Ni-NTA, SEC); not shown: His6, N-terminal, kept
As to B1, in data set [2], the “stoichiometry N” value came out at 3. In the data set with P0AEU7 [3], this molecule returned a Monomer (%) at c ≃ 80 μM of 3%. The “Trimer (%) at c ≃ 80 μM” value in data set [4] was found to be 97%. The C0.5 in data set [5] was found to be 1.5 µM. The Skp activity (% of WT), amount of Skp-bound tOmpA in data set [1] is 100 % of WT.

B2: Skp(A103R) (natural protein, E. coli, UniProt P0AEU7 21-161, looked up)
chain: B1 chain with A103R
notes: Monomer-trimer equilibrium shifted toward the monomer; source: E. coli BL21-(λ DE3)-Lemo, purified (Ni-NTA, SEC); not shown: His6, N-terminal, kept
In the data set with P0AEU7 [3], B2 gave a Monomer (%) at c ≃ 80 μM of 14%. In data set [4], the “Trimer (%) at c ≃ 80 μM” value is 86%. In data set [6], the “stoichiometry N” value turned out to be 3. In addition, the C0.5 in data set [5] came out at 7 ± 2 µM. The Skp activity (% of WT), amount of Skp-bound tOmpA in data set [1] is 87 % of WT.

B3: Skp(A108R) (natural protein, E. coli, UniProt P0AEU7 21-161, looked up)
chain: B1 chain with A108R
notes: Fully monomeric up to 1 mM; source: E. coli BL21-(λ DE3)-Lemo, purified (Ni-NTA, SEC); not shown: His6, N-terminal, kept
For B3, the C0.5 in data set [5] was > 1000 µM. The Skp activity (% of WT), amount of Skp-bound tOmpA in data set [1] was 1 % of WT.

B4: Skp(A103L) (natural protein, E. coli, UniProt P0AEU7 21-161, looked up)
chain: B1 chain with A103L
notes: Monomer-trimer equilibrium essentially as the wild type; source: E. coli BL21-(λ DE3)-Lemo, purified (Ni-NTA, SEC); not shown: His6, N-terminal, kept
In the data set with P0AEU7 [3], B4 gave a Monomer (%) at c ≃ 80 μM of 6%. Also, the “Trimer (%) at c ≃ 80 μM” value in data set [4] was 94%. Moreover, in data set [6], the “stoichiometry N” value turned out to be 3. Besides, in data set [5], the C0.5 is 1.5 µM. Also, the Skp activity (% of WT), amount of Skp-bound tOmpA in data set [1] is 100 % of WT.

B5: Skp(A108L) (natural protein, E. coli, UniProt P0AEU7 21-161, looked up)
chain: B1 chain with A108L
notes: Monomer-trimer equilibrium strongly shifted toward the monomer; also called Skp(108L); source: E. coli BL21-(λ DE3)-Lemo, purified (Ni-NTA, SEC); not shown: His6, N-terminal, kept
Molecule B5 returned a Monomer (%) at c ≃ 80 μM with P0AEU7 [3] of 53%. The “Trimer (%) at c ≃ 80 μM” value in data set [4] is 47%. Also, in the data set with P0AEU7 [7], the “monomer (%) at 1 mM, 37°C” value is “around 95% monomer at a concentration of 1 mM” and the “monomer (%) at 37°C” value was “more than 80% in its monomeric state”. Further, the “stoichiometry N” value in data set [6] stood at 3. Moreover, the C0.5 in data set [5] was 80 ± 20 µM. Also, in data set [1], the Skp activity (% of WT), amount of Skp-bound tOmpA is 55 % of WT.

The values are drawn from paper PMC7577714, “Regulation of chaperone function by coupled folding and oligomerization” (Science Advances, 2020).
